According to US20210088528A1 (published 2021):

Experiments:
human PD-L1-His6 [1] = target: T1, human PD-L1-His6 (human, UniProt Q9NZQ7 19-238); experiment: BLI, PD-1-Fc on AHC biosensor
T1 construct: extracellular domain; also called hPD-L1; B7-H1; not shown: His6 tag (by the name PD-L1-His6)
Description: (§1) BLI was performed on an Octet RED96® system at 30° C. in a buffer of 150 mM NaCl, 20 mM HEPES:NaOH pH 7.4, 0.1% BSA and 0.05% Tween 20. The human PD-1-Fc proteins were loaded onto anti-human IgG Fc capture (AHC) biosensors, associated in defined concentrations of human PD-L2-His6 or PD-L1-His6 proteins, and then dissociated in buffer.
(§2) Using bio-layer interferometry (BLI), the binding of PD-L2 to wild-type PD-1 and the variants was compared (data not shown). The binding of sensor-loaded PD-1 and the loop variants to 190 nM PD-L2 and 1.1 μM PD-L1 was measured using biolayer interferometry. Corresponding PD-1-Fc proteins were loaded on anti-human IgG Fc capture (AHC) biosensors. Association was monitored for 2 min and dissociation for 2 min. Fitting of binding curves was performed in Graphpad Prism 8 software using built-in equations of “Receptor binding—kinetics” models. Means and standard deviations were calculated from 3-4 independent experiments. […] Fitting of binding curves was performed in Graphpad Prism 8 using built-in equations of “Receptor binding—kinetics” models. Means and standard deviations were calculated from 3-4 independent experiments. […] Kinetic measurements of binding of the ligands by PD-1 with BLI also permitted the determination of association constants (kₒₙ).

human PD-L2-His6 [2] = target: T2, human PD-L2-His6 (human, UniProt Q9BQ51 20-220); experiment: BLI, PD-1-Fc on AHC biosensor
T2 construct: extracellular domain; also called hPD-L2; B7-DC; not shown: His6 tag (by the name PD-L2-His6)
T2 sequence (looked up): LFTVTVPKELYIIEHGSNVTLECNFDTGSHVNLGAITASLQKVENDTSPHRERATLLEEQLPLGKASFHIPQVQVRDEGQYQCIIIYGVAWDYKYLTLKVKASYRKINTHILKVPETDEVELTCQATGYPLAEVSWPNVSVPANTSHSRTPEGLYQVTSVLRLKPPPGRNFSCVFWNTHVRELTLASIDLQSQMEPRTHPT
Description: as §1, §2

human PD-L1-His6 [3] = target: T1, human PD-L1-His6; experiment: BLI (Octet RED96), PD-1-Fc on AHC biosensor, PD-L1-His6 in solution
Description: as §1, §2

human PD-L2-His6 [4] = target: T2, human PD-L2-His6; experiment: BLI (Octet RED96), PD-1-Fc on AHC biosensor, PD-L2-His6 in solution
Description: as §1, §2

T1 sequence (Q9NZQ7 19-238): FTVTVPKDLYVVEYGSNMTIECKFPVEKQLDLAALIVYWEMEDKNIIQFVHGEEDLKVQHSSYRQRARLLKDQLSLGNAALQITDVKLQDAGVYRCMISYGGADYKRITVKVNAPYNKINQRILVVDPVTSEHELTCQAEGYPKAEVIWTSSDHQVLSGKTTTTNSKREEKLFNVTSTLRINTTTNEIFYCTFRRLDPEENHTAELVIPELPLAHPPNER

B1: human PD-1-Fc N74G T76P A132V (Fc fusion)
chain: PGWFLDSPDRPWNPPTFSPALLVVTEGDNATFTCSFSNTSESFVLNWYRMSPSGQPDKLAAFPEDRSQPGQDCRFRVTQLPNGRDFHMSVVRARRNDSGTYLCGAISLAPKVQIKESLRAELRVTERRAE
notes: also called PD-1 triple mutant; triple-mutant; not shown: Fc portion
fold increase of kon against wild-type PD-1 (human PD-L1-His6 [1]): 14 fold | fold increase in binding affinity against wild-type PD-1 (human PD-L2-His6 [2]): ~200 fold | fold increase of kon against wild-type PD-1 (human PD-L2-His6 [2]): 3 fold | Kd (human PD-L1-His6 [3]): 72 nM | koff (human PD-L1-His6 [3]): 0.036 s⁻¹ | kon (human PD-L1-His6 [3]): 520000 M⁻¹ s⁻¹ | Kd (human PD-L2-His6 [4]): 2.6 nM | koff (human PD-L2-His6 [4]): 0.0014 s⁻¹ | kon (human PD-L2-His6 [4]): 580000 M⁻¹ s⁻¹
